Response (arbitrary units) data for 1 substance are collected here from patent US20120101255A1.

The target in the assay is Recombinant Cx43CT (carboxyl terminal domain of rat connexin43, residues 255-382, preceded by GPLG) (rat) (UniProt P08050). As to the kind of experiment: SPR on the carboxyl terminal domain of Cx43, peptide at 1.0 mM.
Chain of Recombinant Cx43CT (carboxyl terminal domain of rat connexin43, residues 255-382, preceded by GPLG) (rat) (P08050 other isoform, or with tags, fused parts or gaps limits assumed): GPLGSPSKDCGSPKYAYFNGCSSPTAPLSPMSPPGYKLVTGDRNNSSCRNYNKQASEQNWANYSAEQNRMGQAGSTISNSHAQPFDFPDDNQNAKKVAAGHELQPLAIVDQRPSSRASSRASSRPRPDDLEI

On to “AcRNP-NH2 (Identification No. 2502) (peptide)”, for which the Response (arbitrary units) was 4.6.
